From publication PMC10786891, “Massively parallel profiling of RNA-targeting CRISPR-Cas13d”

T1: EsCas13d, nuclease-dead (Eubacterium siraeum, UniProt B0MS50, R295A;H300A;R849A;H854A)
T1 sequence: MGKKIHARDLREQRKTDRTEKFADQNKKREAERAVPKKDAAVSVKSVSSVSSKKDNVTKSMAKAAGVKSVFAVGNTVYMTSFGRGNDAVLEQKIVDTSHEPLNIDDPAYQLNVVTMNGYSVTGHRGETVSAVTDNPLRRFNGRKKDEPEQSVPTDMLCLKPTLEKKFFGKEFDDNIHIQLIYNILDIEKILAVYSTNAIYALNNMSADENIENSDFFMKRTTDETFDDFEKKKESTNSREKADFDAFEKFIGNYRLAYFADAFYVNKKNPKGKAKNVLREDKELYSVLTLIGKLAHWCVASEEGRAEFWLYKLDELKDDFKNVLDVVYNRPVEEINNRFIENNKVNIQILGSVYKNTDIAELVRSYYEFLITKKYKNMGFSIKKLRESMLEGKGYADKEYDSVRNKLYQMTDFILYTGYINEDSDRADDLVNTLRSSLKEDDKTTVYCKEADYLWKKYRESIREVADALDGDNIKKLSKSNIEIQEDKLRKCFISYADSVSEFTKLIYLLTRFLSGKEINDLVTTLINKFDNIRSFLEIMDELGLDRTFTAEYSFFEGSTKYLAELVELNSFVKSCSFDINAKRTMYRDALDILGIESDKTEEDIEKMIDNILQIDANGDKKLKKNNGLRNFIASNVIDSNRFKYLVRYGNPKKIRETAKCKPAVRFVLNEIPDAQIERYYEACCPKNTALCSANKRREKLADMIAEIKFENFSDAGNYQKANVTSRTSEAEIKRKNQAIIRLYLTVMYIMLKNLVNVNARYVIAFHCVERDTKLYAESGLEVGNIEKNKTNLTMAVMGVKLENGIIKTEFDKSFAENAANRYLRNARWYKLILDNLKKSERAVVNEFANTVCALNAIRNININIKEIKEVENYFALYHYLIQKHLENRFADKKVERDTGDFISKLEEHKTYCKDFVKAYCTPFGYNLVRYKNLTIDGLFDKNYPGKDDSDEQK


Target: T1, EsCas13d, nuclease-dead
Experiment: crRNA (strand 1, pre-loaded); Mg2+; 40 mM Tris-HCl pH 7.5, 150 mM NaCl, 6 mM MgCl2, 1 mM DTT, 0.1% Tween-20, 0.2 mg/ml BSA; 25 C; 10 min per concentration, then washed
Conditions: tags: His6-TwinStrep-SUMO cleaved; N-terminal SNAP kept (SNAP-Surface 488); label: 3' end held by stalled T7 RNA polymerase

Row | Binder | Kd [nM]
1 | target 1 insG 3' of 22,insA 3' of 15 (mixed) RNA 1: CACCCGUGCAAAAAUGCAGGGGUCUAAAACUGAGCGGAUAACCUCUCUAUGG RNA 2: GGGAAUGGAUCCACAUCUACGAAUUCGUACGCAUAGAGAAGGUUAUCCGCUCACCGAGAUCGGAAGAGCACACGU | 17.2 ± 1.6
2 | target 1 insU 3' of 21,insC 3' of 8 (mixed) RNA 1: CACCCGUGCAAAAAUGCAGGGGUCUAAAACUGAGCGGAUAACCUCUCUAUGG RNA 2: GGGAAUGGAUCCACAUCUACGAAUUCGUACCUAUAGAGAGGUUAUCCCGCUCACCGAGAUCGGAAGAGCACACGU | 71 ± 15
3 | target 1 insA 3' of 17,insU 3' of 15 (mixed) RNA 1: CACCCGUGCAAAAAUGCAGGGGUCUAAAACUGAGCGGAUAACCUCUCUAUGG RNA 2: GGGAAUGGAUCCACAUCUACGAAUUCGUACCAUAGAAGUAGGUUAUCCGCUCACCGAGAUCGGAAGAGCACACGU | 12 ± 4
4 | target 1 insG 3' of 8,insC 3' of 8 (mixed) RNA 1: CACCCGUGCAAAAAUGCAGGGGUCUAAAACUGAGCGGAUAACCUCUCUAUGG RNA 2: GGGAAUGGAUCCACAUCUACGAAUUCGUACCAUAGAGAGGUUAUGCCCGCUCACCGAGAUCGGAAGAGCACACGU | 12.9 ± 0.5
5 | target 1 A9U,G17U (mixed) RNA 1: CACCCGUGCAAAAAUGCAGGGGUCUAAAACUGAGCGGAUAACCUCUCUAUGG RNA 2: GGGAAUGGAUCCACAUCUACGAAUUCGUACCAUAUAGAGGUUUUCCGCUCACCGAGAUCGGAAGAGCACACGU | 30 ± 4
6 | target 1 C6U,G15A (mixed) RNA 1: CACCCGUGCAAAAAUGCAGGGGUCUAAAACUGAGCGGAUAACCUCUCUAUGG RNA 2: GGGAAUGGAUCCACAUCUACGAAUUCGUACCAUAGAAAGGUUAUCUGCUCACCGAGAUCGGAAGAGCACACGU | 11.9 ± 0.5
7 | target 1 insC 3' of 10 (mixed) RNA 1: CACCCGUGCAAAAAUGCAGGGGUCUAAAACUGAGCGGAUAACCUCUCUAUGG RNA 2: GGGAAUGGAUCCACAUCUACGAAUUCGUACCAUAGAGAGGUUCAUCCGCUCACCGAGAUCGGAAGAGCACACGU | 15.5 ± 0.9
8 | target 1 insC 3' of 20,insG 3' of 9 (mixed) RNA 1: CACCCGUGCAAAAAUGCAGGGGUCUAAAACUGAGCGGAUAACCUCUCUAUGG RNA 2: GGGAAUGGAUCCACAUCUACGAAUUCGUACCACUAGAGAGGUUAGUCCGCUCACCGAGAUCGGAAGAGCACACGU | 10.2 ± 0.8
9 | target 1 insC 3' of 5,insG 3' of 1 (mixed) RNA 1: CACCCGUGCAAAAAUGCAGGGGUCUAAAACUGAGCGGAUAACCUCUCUAUGG RNA 2: GGGAAUGGAUCCACAUCUACGAAUUCGUACCAUAGAGAGGUUAUCCGCCUCAGCCGAGAUCGGAAGAGCACACGU | 8.4 ± 0.6
10 | target 1 G5C,C7A (mixed) RNA 1: CACCCGUGCAAAAAUGCAGGGGUCUAAAACUGAGCGGAUAACCUCUCUAUGG RNA 2: GGGAAUGGAUCCACAUCUACGAAUUCGUACCAUAGAGAGGUUAUACCCUCACCGAGAUCGGAAGAGCACACGU | 21.2 ± 1.4
11 | target 1 C6U,A18G (mixed) RNA 1: CACCCGUGCAAAAAUGCAGGGGUCUAAAACUGAGCGGAUAACCUCUCUAUGG RNA 2: GGGAAUGGAUCCACAUCUACGAAUUCGUACCAUGGAGAGGUUAUCUGCUCACCGAGAUCGGAAGAGCACACGU | 54 ± 18
12 | target 1 insA 3' of 13,insA 3' of 8 (mixed) RNA 1: CACCCGUGCAAAAAUGCAGGGGUCUAAAACUGAGCGGAUAACCUCUCUAUGG RNA 2: GGGAAUGGAUCCACAUCUACGAAUUCGUACCAUAGAGAGAGUUAUACCGCUCACCGAGAUCGGAAGAGCACACGU | 4.8 ± 0.23
13 | target 1 insC 3' of 5,insU 3' of 1 (mixed) RNA 1: CACCCGUGCAAAAAUGCAGGGGUCUAAAACUGAGCGGAUAACCUCUCUAUGG RNA 2: GGGAAUGGAUCCACAUCUACGAAUUCGUACCAUAGAGAGGUUAUCCGCCUCAUCCGAGAUCGGAAGAGCACACGU | 9.61 ± 0.26
14 | target 1 A18G,U19A (mixed) RNA 1: CACCCGUGCAAAAAUGCAGGGGUCUAAAACUGAGCGGAUAACCUCUCUAUGG RNA 2: GGGAAUGGAUCCACAUCUACGAAUUCGUACCAAGGAGAGGUUAUCCGCUCACCGAGAUCGGAAGAGCACACGU | 98 ± 25
15 | target 1 C2U,C22U (mixed) RNA 1: CACCCGUGCAAAAAUGCAGGGGUCUAAAACUGAGCGGAUAACCUCUCUAUGG RNA 2: GGGAAUGGAUCCACAUCUACGAAUUCGUAUCAUAGAGAGGUUAUCCGCUUACCGAGAUCGGAAGAGCACACGU | 26 ± 6
16 | target 1 insA 3' of 22,insG 3' of 3 (mixed) RNA 1: CACCCGUGCAAAAAUGCAGGGGUCUAAAACUGAGCGGAUAACCUCUCUAUGG RNA 2: GGGAAUGGAUCCACAUCUACGAAUUCGUACACAUAGAGAGGUUAUCCGCUGCACCGAGAUCGGAAGAGCACACGU | 10.8 ± 0.8
17 | target 1 C4A,U10A (mixed) RNA 1: CACCCGUGCAAAAAUGCAGGGGUCUAAAACUGAGCGGAUAACCUCUCUAUGG RNA 2: GGGAAUGGAUCCACAUCUACGAAUUCGUACCAUAGAGAGGUAAUCCGAUCACCGAGAUCGGAAGAGCACACGU | 5.3 ± 0.4
18 | target 1 A1C,U19G (mixed) RNA 1: CACCCGUGCAAAAAUGCAGGGGUCUAAAACUGAGCGGAUAACCUCUCUAUGG RNA 2: GGGAAUGGAUCCACAUCUACGAAUUCGUACCAGAGAGAGGUUAUCCGCUCCCCGAGAUCGGAAGAGCACACGU | ~80
19 | target 1 insA 3' of 17,insG 3' of 6 (mixed) RNA 1: CACCCGUGCAAAAAUGCAGGGGUCUAAAACUGAGCGGAUAACCUCUCUAUGG RNA 2: GGGAAUGGAUCCACAUCUACGAAUUCGUACCAUAGAAGAGGUUAUCCGGCUCACCGAGAUCGGAAGAGCACACGU | 19.4 ± 0.8
20 | target 1 insU 3' of 14,insG 3' of 14 (mixed) RNA 1: CACCCGUGCAAAAAUGCAGGGGUCUAAAACUGAGCGGAUAACCUCUCUAUGG RNA 2: GGGAAUGGAUCCACAUCUACGAAUUCGUACCAUAGAGAUGGGUUAUCCGCUCACCGAGAUCGGAAGAGCACACGU | 44 ± 10
21 | target 1 insC 3' of 18,insA 3' of 11 (mixed) RNA 1: CACCCGUGCAAAAAUGCAGGGGUCUAAAACUGAGCGGAUAACCUCUCUAUGG RNA 2: GGGAAUGGAUCCACAUCUACGAAUUCGUACCAUACGAGAGGUAUAUCCGCUCACCGAGAUCGGAAGAGCACACGU | 74 ± 9
22 | target 1 U8A,A9G (mixed) RNA 1: CACCCGUGCAAAAAUGCAGGGGUCUAAAACUGAGCGGAUAACCUCUCUAUGG RNA 2: GGGAAUGGAUCCACAUCUACGAAUUCGUACCAUAGAGAGGUUGACCGCUCACCGAGAUCGGAAGAGCACACGU | 19.3 ± 1
23 | target 1 insC 3' of 5,insC 3' of 1 (mixed) RNA 1: CACCCGUGCAAAAAUGCAGGGGUCUAAAACUGAGCGGAUAACCUCUCUAUGG RNA 2: GGGAAUGGAUCCACAUCUACGAAUUCGUACCAUAGAGAGGUUAUCCGCCUCACCCGAGAUCGGAAGAGCACACGU | 19.6 ± 3.4
24 | target 1 U19G (mixed) RNA 1: CACCCGUGCAAAAAUGCAGGGGUCUAAAACUGAGCGGAUAACCUCUCUAUGG RNA 2: GGGAAUGGAUCCACAUCUACGAAUUCGUACCAGAGAGAGGUUAUCCGCUCACCGAGAUCGGAAGAGCACACGU | 48 ± 5
25 | target 1 insA 3' of 13,insG 3' of 4 (mixed) RNA 1: CACCCGUGCAAAAAUGCAGGGGUCUAAAACUGAGCGGAUAACCUCUCUAUGG RNA 2: GGGAAUGGAUCCACAUCUACGAAUUCGUACCAUAGAGAGAGUUAUCCGCGUCACCGAGAUCGGAAGAGCACACGU | 3.04 ± 0.19
26 | target 1 insG 3' of 16,insA 3' of 7 (mixed) RNA 1: CACCCGUGCAAAAAUGCAGGGGUCUAAAACUGAGCGGAUAACCUCUCUAUGG RNA 2: GGGAAUGGAUCCACAUCUACGAAUUCGUACCAUAGAGGAGGUUAUCACGCUCACCGAGAUCGGAAGAGCACACGU | 14.5 ± 0.9
27 | target 1 C7G,C22U (mixed) RNA 1: CACCCGUGCAAAAAUGCAGGGGUCUAAAACUGAGCGGAUAACCUCUCUAUGG RNA 2: GGGAAUGGAUCCACAUCUACGAAUUCGUAUCAUAGAGAGGUUAUGCGCUCACCGAGAUCGGAAGAGCACACGU | 13.7 ± 0.7
28 | target 1 A1G,C2A (mixed) RNA 1: CACCCGUGCAAAAAUGCAGGGGUCUAAAACUGAGCGGAUAACCUCUCUAUGG RNA 2: GGGAAUGGAUCCACAUCUACGAAUUCGUACCAUAGAGAGGUUAUCCGCUAGCCGAGAUCGGAAGAGCACACGU | 5.2 ± 0.32
